# Test results taken from article PMC2631437 (Molecular microbiology, 2008).
# Substitutions are numbered along the chain they refer to.
# B1: 21 bp MotA box DNA (dsDNA)
# DNA 1: GAATTATTTGCTTTAGATTAC
# DNA 2: GTAATCTAAAGCAAATAATTC
# Key:
# Experiment in all cases: EMSA
# MotA K28E = target: T1, MotA K28E (bacteriophage T4, UniProt P22915 1-211, K28E)
# T1 sequence: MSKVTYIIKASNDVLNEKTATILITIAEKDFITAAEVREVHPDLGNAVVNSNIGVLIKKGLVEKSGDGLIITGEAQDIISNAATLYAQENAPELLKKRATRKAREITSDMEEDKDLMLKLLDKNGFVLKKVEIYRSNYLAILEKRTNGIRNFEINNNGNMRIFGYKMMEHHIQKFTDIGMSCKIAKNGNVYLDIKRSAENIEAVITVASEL
# MotA Q76R = target: T2, MotA Q76R (bacteriophage T4, UniProt P22915 1-211, Q76R)
# T2 sequence: T1 sequence with E28K, Q76R
# MotA K59E = target: T3, MotA K59E (bacteriophage T4, UniProt P22915 1-211, K59E)
# T3 sequence: T1 sequence with E28K, K59E
# MotA K3E = target: T4, MotA K3E (bacteriophage T4, UniProt P22915 1-211, K3E)
# T4 sequence: T1 sequence with K3E, E28K
# MotA S80R = target: T5, MotA S80R (bacteriophage T4, UniProt P22915 1-211, S80R)
# T5 sequence: T1 sequence with E28K, S80R
# MotA D43K = target: T6, MotA D43K (bacteriophage T4, UniProt P22915 1-211, D43K)
# T6 sequence: T1 sequence with E28K, D43K
binder,measurement,setting,value
B1,Kd,MotA K28E,~500 nM
same,Kd,MotA Q76R,~600 nM
same,Kd,MotA K59E,~500 nM
same,Kd,MotA K3E,~500 nM
same,Kd,MotA S80R,~600 nM
same,Kd,MotA D43K,~500 nM
